Laboratory results taken from paper PMC10620092, “Structure and electromechanical coupling of a voltage-gated Na^+/H^+ exchanger” (Nature, 2023).

Target: the molecule itself
Assay: cryo-EM structure; 3 mg/ml SLC9C1 in GDN detergent (50 mM Tris-HCl pH 7.5, 150 mM NaCl, 0.02% GDN); C2 symmetry, symmetry expansion and masked refinement for the VSDs

B1: Strongylocentrotus purpuratus (sea urchin) SLC9C1, full length, GFP-TwinStrep tag removed by TEV (natural protein, UniProt A3RL54 30-1325, looked up)
chain: SSGGSGHTPTTQATHADDHDLTTHNGTEEHDDGHDDGHDDLHAHAPKVIVFISGSCLFGAISRSLFKKLPIPYTVVLLILGAILGVVASNVPLVEEHTRDVAHMDPHVLLQIFLPVLIFESAFAMDVHTFMRSFSQVCILALFGLVVASVLTAVLAMNLFNYNWNFSEAMMFGAIMSATDPVAVVALLKDLGASKQLGTIIEGESLLNDGCAIVIFNVFMKMVFFPQLTSTVGQNVLYFLQVAVAGPLWGYAVAKVTVFFLSHIFNDALVEITITLAATYLTYYIGDIWLEVSGVLAVVVLGLIVNAEKTSISPEVEVFLHRFWEMLAYLANTLIFMMVGVVVTQKALVAVDKMDWFYLIILYLAITIIRGMVISLFSPILSRIGYGLTWRNAVIMTWGGLRGAVGLALALVVENLAGNDVIGSKFLFHTAGIVVLTLVINATTIQTLLRILGMSDISIPKRLAMAGAVRRIHEGQNRTLNMLKSDRFLADADWDIATAACEISDPYSALSDDENAPADELTLGERKSVCPGCKAMVPNEPSPREFADMMEEARLRMLKAEKISYWKQFEHGMLAREALRLLVQHAEVAADEKDQFILVDDLKKSWQIKGIYPWLKRKLEDLISEKKIAAIPMPKYKLGKLMYKICHHMAFEVTINIAIVLNIVPIIMEFVVQDKMASVSTMAAPGSTVSSEPSSLQKIEDALRISNYVFFVIYAIEAIVKILGLGRHYIVSHWNKFDAFILVVALVDIIIAETLLKGSITINLSSIKVVKLFRLLRGLRMLRLTKALIPKLILVVNGKINNQLSLGYDVGKGYIIGEEEVGKIIDRMVDNKKILRELKHISETGRLQVVKELGLLQREHPGIAVSVKTRQAIRTILNHSRETIHELQGAGLLDEMEAHKLELTVEIKMKRLMNAPSSIPPPPPENLLKNVSWLAGDMKLIDFIKARASLLHFDYGEVIVREGDESDGLFLIVSGLVKLYGKSAFLDHDNPPVTAGSEENEVFEDYLTVGNVIGEMGVLTKKPRNATVTCETTVQVYFITAEDMNIAIDTFTLYPSLEYRLWRVVAIRIATPLIMEQMAFQGWTQEKVKLHLERGYLVDLAESHFQFNIDATLEDVILINGTAYNAHTREEIRSPCLISRTVHKLTFQYTATEEPRLFVVRNAEYNGPILDGRLDVDSKRSLISITEISSNMCLKHAAELRQKNSKVMLSRKSSGAAAKEEEDCIPNTSDVEQAAGVSPSVPTKTTPKPKSFLPSLGLSMSKERVNGEAVEESPVKTKQGEETPETEEGAAPRVNV
notes: synthesised gene in pcDNA3.1(+); A TEV recognition site follows the protein; what is left of it after cleavage stays at the C terminus; also called sperm-specific Na+/H+ exchanger SLC9C1; SLC9C1(WT); source: for one sample further reconstituted into MSP1E2 nanodiscs with yeast polar lipids; not shown: eGFP, C-terminal, cleaved; TwinStrep, C-terminal, cleaved; His8, C-terminal, cleaved
stoichiometry N: 2
